# Data as given in patent US20120213794A1 (published 2012).
# Assays:
# Mouse PCSK9 [1] = molecular target: T1, Mouse PCSK9 (mouse, UniProt Q80W65 35-694, limits assumed); experiment: Biacore (SPR), IgG2 captured, PCSK9 as analyte
# T1 construct: Column head prints 'Mouse 9'; also called Mouse 9; mPCSK9
# rat PCSK9 = rat PCSK9 (rat, UniProt P59996 31-691, limits assumed); experiment: Biacore (SPR), IgG2 captured, PCSK9 as analyte
# Rhesus PCSK9 [2] = molecular target: T2, Rhesus PCSK9 (rhesus, UniProt A8T666 31-692, limits assumed); experiment: Biacore (SPR), IgG2 captured, PCSK9 as analyte
# T2 construct: also called rhPCSK9
# T2 sequence (A8T666 31-692 limits assumed): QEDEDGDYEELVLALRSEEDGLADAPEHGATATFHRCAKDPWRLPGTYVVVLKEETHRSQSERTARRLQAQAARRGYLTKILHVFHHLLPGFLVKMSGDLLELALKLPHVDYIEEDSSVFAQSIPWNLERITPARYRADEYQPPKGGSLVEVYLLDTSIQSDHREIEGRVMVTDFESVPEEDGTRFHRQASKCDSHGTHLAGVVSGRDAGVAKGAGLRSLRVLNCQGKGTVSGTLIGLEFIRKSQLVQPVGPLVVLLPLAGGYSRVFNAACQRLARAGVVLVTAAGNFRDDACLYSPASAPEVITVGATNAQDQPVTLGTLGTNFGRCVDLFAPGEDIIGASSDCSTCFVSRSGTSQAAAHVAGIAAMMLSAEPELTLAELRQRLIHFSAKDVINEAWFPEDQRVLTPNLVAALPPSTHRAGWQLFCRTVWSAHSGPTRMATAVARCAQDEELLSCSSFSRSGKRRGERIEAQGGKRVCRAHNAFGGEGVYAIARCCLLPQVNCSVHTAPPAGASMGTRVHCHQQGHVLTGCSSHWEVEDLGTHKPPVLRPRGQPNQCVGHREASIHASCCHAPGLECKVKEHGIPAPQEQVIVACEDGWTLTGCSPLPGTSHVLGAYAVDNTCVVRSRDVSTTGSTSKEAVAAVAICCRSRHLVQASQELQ
# human PCSK9 [3] = molecular target: T3, human PCSK9 (human, UniProt Q8NBP7 31-692); experiment: Biacore (SPR), IgG2 captured, PCSK9 as analyte
# T3 construct: also called hPCSK9
# T3 sequence (Q8NBP7 31-692 limits assumed): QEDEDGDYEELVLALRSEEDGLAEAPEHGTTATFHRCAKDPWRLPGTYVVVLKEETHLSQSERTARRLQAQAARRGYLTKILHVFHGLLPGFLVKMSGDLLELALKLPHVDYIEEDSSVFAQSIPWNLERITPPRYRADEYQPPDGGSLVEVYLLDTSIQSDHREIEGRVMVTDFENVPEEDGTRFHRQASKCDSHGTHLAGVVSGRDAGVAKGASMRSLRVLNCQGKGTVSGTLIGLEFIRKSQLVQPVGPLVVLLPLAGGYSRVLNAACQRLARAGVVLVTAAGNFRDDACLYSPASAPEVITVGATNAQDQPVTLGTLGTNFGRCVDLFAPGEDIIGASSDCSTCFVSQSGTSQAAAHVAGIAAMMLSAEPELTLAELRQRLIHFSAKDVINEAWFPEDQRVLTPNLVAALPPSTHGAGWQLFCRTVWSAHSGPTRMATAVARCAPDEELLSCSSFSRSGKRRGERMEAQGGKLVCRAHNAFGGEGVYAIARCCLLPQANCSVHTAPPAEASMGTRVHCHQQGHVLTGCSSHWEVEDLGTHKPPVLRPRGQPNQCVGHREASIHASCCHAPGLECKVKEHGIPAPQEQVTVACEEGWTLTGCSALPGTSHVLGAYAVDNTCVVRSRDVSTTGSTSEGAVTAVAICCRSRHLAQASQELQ
# rhesus PCSK9 [4] = molecular target: T4, rhesus PCSK9 (rhesus, UniProt A8T666 31-692, limits assumed); experiment: cell-based or functional assay
# T4 sequence (A8T666 31-692 limits assumed): as the sequence (A8T666 31-692 limits assumed) above
# murine PCSK9 [5] = molecular target: T5, murine PCSK9 (mouse, UniProt Q80W65 35-694, limits assumed); experiment: cell-based or functional assay
# T5 sequence (Q80W65 35-694 limits assumed): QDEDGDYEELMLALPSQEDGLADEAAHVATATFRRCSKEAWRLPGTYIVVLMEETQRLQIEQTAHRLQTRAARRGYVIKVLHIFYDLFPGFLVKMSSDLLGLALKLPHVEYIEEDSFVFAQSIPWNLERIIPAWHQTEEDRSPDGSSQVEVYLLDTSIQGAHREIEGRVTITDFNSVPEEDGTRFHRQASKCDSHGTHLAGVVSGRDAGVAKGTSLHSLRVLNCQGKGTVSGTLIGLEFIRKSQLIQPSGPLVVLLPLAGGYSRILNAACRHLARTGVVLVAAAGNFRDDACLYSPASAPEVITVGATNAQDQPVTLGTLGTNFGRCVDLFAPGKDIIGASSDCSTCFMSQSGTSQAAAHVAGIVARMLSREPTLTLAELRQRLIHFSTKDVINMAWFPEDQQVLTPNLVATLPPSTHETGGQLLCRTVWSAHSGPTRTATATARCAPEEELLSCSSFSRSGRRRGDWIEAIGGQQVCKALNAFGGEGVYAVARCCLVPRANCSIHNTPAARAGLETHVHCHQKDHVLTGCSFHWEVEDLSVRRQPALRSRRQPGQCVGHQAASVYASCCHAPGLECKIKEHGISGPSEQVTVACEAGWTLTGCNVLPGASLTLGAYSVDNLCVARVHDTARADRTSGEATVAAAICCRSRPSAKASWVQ
# human PCSK9 [6] = molecular target: T6, human PCSK9 (human, UniProt Q8NBP7 31-692); experiment: cell-based or functional assay
# T6 sequence (Q8NBP7 31-692 limits assumed): as the sequence (Q8NBP7 31-692 limits assumed) above
# rhesus PCSK9 [7] = molecular target: T4, rhesus PCSK9; experiment: cell-based or functional assay; remark: listed apart in the source
# murine PCSK9 [8] = molecular target: T5, murine PCSK9; experiment: cell-based or functional assay; remark: listed apart in the source
# human PCSK9 [9] = molecular target: T6, human PCSK9; experiment: cell-based or functional assay; remark: listed apart in the source
# Mouse PCSK9 [10] = molecular target: T1, Mouse PCSK9; experiment: Biacore (SPR), IgG2 format
# T1 sequence (Q80W65 35-694 limits assumed): as the sequence (Q80W65 35-694 limits assumed) above
# rat PCSK9, sequence (P59996 31-691 limits assumed): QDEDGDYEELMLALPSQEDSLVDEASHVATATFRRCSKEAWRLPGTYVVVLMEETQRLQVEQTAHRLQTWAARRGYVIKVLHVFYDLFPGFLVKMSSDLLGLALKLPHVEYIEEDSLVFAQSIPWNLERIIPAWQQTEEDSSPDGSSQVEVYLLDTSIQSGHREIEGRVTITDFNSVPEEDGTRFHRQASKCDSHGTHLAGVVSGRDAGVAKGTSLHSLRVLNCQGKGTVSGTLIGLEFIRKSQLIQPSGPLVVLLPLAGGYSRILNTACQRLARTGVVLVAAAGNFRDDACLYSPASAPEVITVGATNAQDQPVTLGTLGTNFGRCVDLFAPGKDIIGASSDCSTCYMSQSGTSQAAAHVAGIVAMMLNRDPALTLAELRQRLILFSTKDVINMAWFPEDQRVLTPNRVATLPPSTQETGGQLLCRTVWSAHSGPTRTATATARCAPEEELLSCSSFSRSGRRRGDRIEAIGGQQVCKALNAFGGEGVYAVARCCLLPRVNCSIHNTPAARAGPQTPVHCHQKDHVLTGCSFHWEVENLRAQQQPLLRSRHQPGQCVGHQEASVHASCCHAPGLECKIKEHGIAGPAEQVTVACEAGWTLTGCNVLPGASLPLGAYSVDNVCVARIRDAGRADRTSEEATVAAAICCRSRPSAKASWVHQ
binder,measurement,setting,value
AX132 IgG2 (antibody) heavy: EVQLLESGGGLVQPGGSLRLSCKASGYTFSSYGMYWVRQAPGKGLEWIGWIDPGSGGTKYNEKFKGKATISRDNSKNTLYLQMNSLRAEDTAVYYCARERYGYYFDYWGQGTLVTVSSASTKGPSVFPLAPCSRSTSESTAALGCLVKDYFPEPVTVSWNSGALTSGVHTFPAVLQSSGLYSLSSVVTVPSSNFGTQTYTCNVDHKPSNTKVDKTVERKCCVECPPCPAPPVAGPSVFLFPPKPKDTLMISRTPEVTCVVVDVSHEDPEVQFNWYVDGVEVHNAKTKPREEQFNSTFRVVSVLTVVHQDWLNGKEYKCKVSNKGLPAPIEKTISKTKGQPREPQVYTLPPSREEMTKNQVSLTCLVKGFYPSDIAVEWESNGQPENNYKTTPPMLDSDGSFFLYSKLTVDKSRWQQGNVFSCSVMHEALHNHYTQKSLSLSPGK light: EIVLTQSPATLSLSPGERATITCRASQYVGSYLNWYQQKPGQAPRLLIYDASNRATGIPARFSGSGSGTDFTLTISSLEPEDFAVYYCQVWDSSPPVVFGGGTKVEIKRTVAAPSVFIFPPSDEQLKSGTASVVCLLNNFYPREAKVQWKVDNALQSGNSQESVTEQDSKDSTYSLSSTLTLSKADYEKHKVYACEVTHQGLSSPVTKSFNRGEC,Kd,Mouse PCSK9 [1],2.76 nM
same,Kd,rat PCSK9,~100 nM
"AX213 IgG2 (antibody, V domains shown) VH: EVQLLESGGGLVQPGGSLRLSCKASGYTFSRYGINWVRQAPGKGLEWIGRIDPGNGGTRYNEKFKGKATISRDNSKNTLYLQMNSLRAEDTAVYYCARANDGYSFDYWGQGTLVTVSS VL: EIVLTQSPATLSLSPGERATITCRASQYVGSYLNWYQQKPGQAPRLLIYDASNRATGIPARFSGSGSGTDFTLTISSLEPEDFAVYYCQVWDSSPPVVFGGGTKVEIKR",Kd,Rhesus PCSK9 [2],1.89 nM
same,Kd,Mouse PCSK9 [1],3.25 nM
same,Kd,human PCSK9 [3],2.07 nM
"AX114 Fab (Fab, V domains shown) VH: EVQLLESGGGLVQPGGSLRLSCKASGYTFSSYGMYWVRQAPGKGLEWIGWIDPGSGGTKYNEKFKGKATISRDNSKNTLYLQMNSLRAEDTAVYYCARERYGYYFDYWGQGTLVTVSS VL: EIVLTQSPATLSLSPGERATITCRASQYVGTYLNWYQQKPGQAPRLLIYDASNRATGIPARFSGSGSGTDFTLTISSLEPEDFAVYYCQVWDSSPPVAFGGGTKVEIK","Fab IC50 (nM), inhibition of PCSK9 on LDL uptake",rhesus PCSK9 [4],194 nM
same,"Fab IC50 (nM), inhibition of PCSK9 on LDL uptake",murine PCSK9 [5],326 nM
same,"Fab IC50 (nM), inhibition of PCSK9 on LDL uptake",human PCSK9 [6],179 nM
"AX139 Fab (Fab, V domains shown) VH: EVQLLESGGGLVQPGGSLRLSCKASGYTFSSYGMYWVRQAPGKGLEWIGWIDPGSGGTKYNEKFKGKATISRDNSKNTLYLQMNSLRAEDTAVYYCARERYGYYFDYWGQGTLVTVSS VL: EIVLTQSPATLSLSPGERATITCRASQYVGSYLNWYQQKPGQAPRLLIYDAANRATGIPARFSGSGSGTDFTLTISSLEPEDFAVYYCQVWDSSPPVVFGGGTKVEIK","Fab IC50 (nM), inhibition of PCSK9 on LDL uptake",murine PCSK9 [5],22.9 nM
same,"Fab IC50 (nM), inhibition of PCSK9 on LDL uptake",human PCSK9 [6],37.7 nM
"AX114 IgG2 (antibody, V domains shown) VH: EVQLLESGGGLVQPGGSLRLSCKASGYTFSSYGMYWVRQAPGKGLEWIGWIDPGSGGTKYNEKFKGKATISRDNSKNTLYLQMNSLRAEDTAVYYCARERYGYYFDYWGQGTLVTVSS VL: EIVLTQSPATLSLSPGERATITCRASQYVGTYLNWYQQKPGQAPRLLIYDASNRATGIPARFSGSGSGTDFTLTISSLEPEDFAVYYCQVWDSSPPVAFGGGTKVEIK",Kd,Rhesus PCSK9 [2],11.6 nM
same,Kd,Mouse PCSK9 [1],11.2 nM
same,Kd,human PCSK9 [3],24 nM
"AX137 IgG2 (antibody, V domains shown) VH: EVQLLESGGGLVQPGGSLRLSCKASGYTFSSYGMYWVRQAPGKGLEWIGWIDPGSGGTKYNEKFKGKATISRDNSKNTLYLQMNSLRAEDTAVYYCARERYGYYFDYWGQGTLVTVSS VL: EIVLTQSPATLSLSPGERATITCRASQYIGSYLNWYQQKPGQAPRLLIYDASNRATGIPARFSGSGSGTDFTLTISSLEPEDFAVYYCQAWDSSPPVVFGGGTKVEIK [AX137 IgG2, listing 1 of 2 here]","IgG2 IC50 (nM), inhibition of PCSK9 (LDL uptake assay)",rhesus PCSK9 [7],10 nM
same,"IgG2 IC50 (nM), inhibition of PCSK9 (LDL uptake assay)",murine PCSK9 [8],5.3 nM
same,"IgG2 IC50 (nM), inhibition of PCSK9 (LDL uptake assay)",human PCSK9 [9],9.8 nM
"AX132 Fab (Fab, V domains shown) VH: EVQLLESGGGLVQPGGSLRLSCKASGYTFSSYGMYWVRQAPGKGLEWIGWIDPGSGGTKYNEKFKGKATISRDNSKNTLYLQMNSLRAEDTAVYYCARERYGYYFDYWGQGTLVTVSS VL: EIVLTQSPATLSLSPGERATITCRASQYVGSYLNWYQQKPGQAPRLLIYDASNRATGIPARFSGSGSGTDFTLTISSLEPEDFAVYYCQVWDSSPPVVFGGGTKVEIKR","Fab IC50 (nM), inhibition of PCSK9 on LDL uptake",murine PCSK9 [5],26.9 nM
same,"Fab IC50 (nM), inhibition of PCSK9 on LDL uptake",human PCSK9 [6],62.2 nM
"AX211 IgG2 (antibody, V domains shown) VH: QVQLLESGGGLVQPGGSLRLSCKASGYTFSRQGFTWVRQAPGKGLEWIGWIDPGNGGTRYNEKFKGKATISRDNSKNTLYLQMNSLRAEDTAVYYCARYRVGYSLDYWGQGTLVTVSS VL: EIVLTQSPATLSLSPGERATITCRASQYVGSYLNWYQQKPGQAPRLLIYDASNRATGIPARFSGSGSGTDFTLTISSLEPEDFAVYYCQVWDSSPPVVFGGGTKVEIK [AX211 IgG2, listing 1 of 2 here]","IgG2 IC50 (nM), inhibition of PCSK9 (LDL uptake assay)",rhesus PCSK9 [7],4.4 nM
same,"IgG2 IC50 (nM), inhibition of PCSK9 (LDL uptake assay)",murine PCSK9 [8],11.1 nM
same,"IgG2 IC50 (nM), inhibition of PCSK9 (LDL uptake assay)",human PCSK9 [9],7.5 nM
"AX210 IgG2 (antibody, V domains shown) VH: QVQLLESGGGLVQPGGSLRLSCKASGYTFSSYSIYWVRQAPGKGLEWIGWIDPGNGGTRYNQKFQSKATISRDNSKNTLYLQMNSLRAEDTAVYYCARARVGYSLDYWGQGTLVTVSS VL: EIVLTQSPATLSLSPGERATITCRASQYVGSYLNWYQQKPGQAPRLLIYDASNRATGIPARFSGSGSGTDFTLTISSLEPEDFAVYYCQVWDSSPPVVFGGGTKVEIK [AX210 IgG2, listing 1 of 2 here]",Kd,Rhesus PCSK9 [2],0.944 nM
same,Kd,Mouse PCSK9 [1],3.6 nM
same,Kd,human PCSK9 [3],2.64 nM
"AX137 Fab (Fab, V domains shown) VH: EVQLLESGGGLVQPGGSLRLSCKASGYTFSSYGMYWVRQAPGKGLEWIGWIDPGSGGTKYNEKFKGKATISRDNSKNTLYLQMNSLRAEDTAVYYCARERYGYYFDYWGQGTLVTVSS VL: EIVLTQSPATLSLSPGERATITCRASQYIGSYLNWYQQKPGQAPRLLIYDASNRATGIPARFSGSGSGTDFTLTISSLEPEDFAVYYCQAWDSSPPVVFGGGTKVEIK","Fab IC50 (nM), inhibition of PCSK9 on LDL uptake",murine PCSK9 [5],27.4 nM
same,"Fab IC50 (nM), inhibition of PCSK9 on LDL uptake",human PCSK9 [6],74.4 nM
"AX210 IgG2 (antibody, V domains shown) VH: QVQLLESGGGLVQPGGSLRLSCKASGYTFSSYSIYWVRQAPGKGLEWIGWIDPGNGGTRYNQKFQSKATISRDNSKNTLYLQMNSLRAEDTAVYYCARARVGYSLDYWGQGTLVTVSS VL: EIVLTQSPATLSLSPGERATITCRASQYVGSYLNWYQQKPGQAPRLLIYDASNRATGIPARFSGSGSGTDFTLTISSLEPEDFAVYYCQVWDSSPPVVFGGGTKVEIK [AX210 IgG2, listing 2 of 2 here]","IgG2 IC50 (nM), inhibition of PCSK9 (LDL uptake assay)",rhesus PCSK9 [7],9.7 nM
same,"IgG2 IC50 (nM), inhibition of PCSK9 (LDL uptake assay)",murine PCSK9 [8],15.9 nM
same,"IgG2 IC50 (nM), inhibition of PCSK9 (LDL uptake assay)",human PCSK9 [9],6.5 nM
"AX212 IgG2 (antibody, V domains shown) VH: QVQLLESGGGLVQPGGSLRLSCKASGYTFSSYSFSWVRQAPGKGLEWIGYIDPGSGGTKYNQKFQGKATISRDNSKNTLYLQMNSLRAEDTAVYYCARQRVGYSLDYWGQGTLVTVSS VL: EIVLTQSPATLSLSPGERATITCRASQYVGSYLNWYQQKPGQAPRLLIYDASNRATGIPARFSGSGSGTDFTLTISSLEPEDFAVYYCQVWDSSPPVVFGGGTKVEIK",Kd,Rhesus PCSK9 [2],0.774 nM
same,Kd,Mouse PCSK9 [1],2.74 nM
same,Kd,human PCSK9 [3],2.12 nM
"AX211 IgG2 (antibody, V domains shown) VH: QVQLLESGGGLVQPGGSLRLSCKASGYTFSRQGFTWVRQAPGKGLEWIGWIDPGNGGTRYNEKFKGKATISRDNSKNTLYLQMNSLRAEDTAVYYCARYRVGYSLDYWGQGTLVTVSS VL: EIVLTQSPATLSLSPGERATITCRASQYVGSYLNWYQQKPGQAPRLLIYDASNRATGIPARFSGSGSGTDFTLTISSLEPEDFAVYYCQVWDSSPPVVFGGGTKVEIK [AX211 IgG2, listing 2 of 2 here]",Kd,Rhesus PCSK9 [2],0.493 nM
same,Kd,Mouse PCSK9 [1],1.66 nM
same,Kd,human PCSK9 [3],1.63 nM
"AX137 IgG2 (antibody, V domains shown) VH: EVQLLESGGGLVQPGGSLRLSCKASGYTFSSYGMYWVRQAPGKGLEWIGWIDPGSGGTKYNEKFKGKATISRDNSKNTLYLQMNSLRAEDTAVYYCARERYGYYFDYWGQGTLVTVSS VL: EIVLTQSPATLSLSPGERATITCRASQYIGSYLNWYQQKPGQAPRLLIYDASNRATGIPARFSGSGSGTDFTLTISSLEPEDFAVYYCQAWDSSPPVVFGGGTKVEIK [AX137 IgG2, listing 2 of 2 here]",binding result,Mouse PCSK9 [10],no binding
same,Kd,Rhesus PCSK9 [2],10 nM
same,Kd,human PCSK9 [3],9.98 nM
